What was measured:
[1] = target: hexon of the Ad5 vector Ad5.10 (Ad5 hexon with HVR1 of Ad6 hexon, on virions) (human adenovirus 5) (UniProt P04133); experiment: SPR; Biacore T200; about 300 to 5,000 RU of Ad virions immobilised on a CM5 chip, coagulation factors flowed over at four concentrations, 50 uL/min; running buffer 10 mM HEPES, 150 mM NaCl, 1 mM CaCl2, 0.5 mM MgCl2, 0.1% BSA, 0.05% polysorbate 20, pH 7.4; regeneration with 3 mM EDTA; global fit to a 1:1 kinetic interaction model, double referencing
[2] = target: hexon of the Ad5 vector Ad5.4 (HVR7 mutant, on virions) (human adenovirus 5) (UniProt P04133); experiment: as above
[3] = target: hexon of the Ad5 vector Ad5.5 (on virions) (human adenovirus 5) (UniProt P04133); experiment: as above
[4] = target: hexon of the Ad5 vector Ad5.6 (on virions) (human adenovirus 5) (UniProt P04133); experiment: as above
[5] = target: chimeric hexon of Ad5:H6.2 (Ad5 vector, hexon residues 112-593 from Ad6 hexon, HVR7 IGNTDTF), on the virion (human adenovirus type 5 | human adenovirus type 6) (UniProt P04133); experiment: SPR; Biacore T200; about 300 to 5,000 RU of Ad virions immobilised on a CM5 chip, coagulation factors flowed over at four concentrations, 50 uL/min; 10 mM HEPES, 150 mM NaCl, 1 mM CaCl2, 0.5 mM MgCl2, 0.1% BSA, 0.05% polysorbate 20, pH 7.4; global fit to a 1:1 kinetic interaction model, double referencing
[6] = target: chimeric hexon of Ad5:H6.3 (Ad5 vector, hexon residues 112-593 from Ad6 hexon, HVR7 IGNTETF), on the virion (human adenovirus type 5 | human adenovirus type 6) (UniProt P04133); experiment: as above
[7] = target: chimeric hexon of Ad5:H6.4 (Ad5 vector, hexon residues 112-593 from Ad6 hexon, HVR7 IGITDAF), on the virion (human adenovirus type 5 | human adenovirus type 6) (UniProt P04133); experiment: as above
[8] = target: chimeric hexon of the Ad5 vector Ad5:H1.6 (Ad1 hexon section with HVR7 mutations, on virions) (human adenovirus 5 | human adenovirus 1) (UniProt P04133); experiment: SPR; Biacore T200; about 300 to 5,000 RU of Ad virions immobilised on a CM5 chip, coagulation factors flowed over at four concentrations, 50 uL/min; running buffer 10 mM HEPES, 150 mM NaCl, 1 mM CaCl2, 0.5 mM MgCl2, 0.1% BSA, 0.05% polysorbate 20, pH 7.4; regeneration with 3 mM EDTA; global fit to a 1:1 kinetic interaction model, double referencing
[9] = target: chimeric hexon of the Ad5 vector Ad5:H6.3 (Ad6 hexon section with HVR7 mutations, on virions) (human adenovirus 5 | human adenovirus 6) (UniProt P04133); experiment: as above
[10] = target: chimeric hexon of the Ad5 vector Ad5:H6.4 (Ad6 hexon section with HVR7 mutations, on virions) (human adenovirus 5 | human adenovirus 6) (UniProt P04133); experiment: as above

Substance	Kd [1] [nM]	koff [1] [s⁻¹]	kon [1] [M⁻¹ s⁻¹]	Kd [2] [nM]	koff [2] [s⁻¹]	kon [2] [M⁻¹ s⁻¹]	Kd [3] [nM]	koff [3] [s⁻¹]	kon [3] [M⁻¹ s⁻¹]	Kd [4] [nM]	koff [4] [s⁻¹]	kon [4] [M⁻¹ s⁻¹]	Kd [5] [nM]	Kd [6] [nM]	Kd [7] [nM]	koff [8] [s⁻¹]	Kd [9] [nM]	koff [9] [s⁻¹]	kon [9] [M⁻¹ s⁻¹]	Kd [10] [nM]	further results
bovine coagulation factor X (from UniProt P00743 41-492) (natural protein)	276	0.151	549000	540	0.147	274000	438	0.169	387000	1620	0.167	104000									
human coagulation factor X (from UniProt P00742 41-488) (natural protein)	1.1	0.000122	112000	10	0.000338	33900	5.2	0.000661	126000	0.94	0.000127	135000									
mouse coagulation factor X (from UniProt O88947 41-481) (natural protein)	0.58	0.00014	240000	1.9	0.000479	248000	2.5	0.00104	416000	0.37	0.000115	310000	681	1200	95	0.638	1200	0.26	214000	95	Kd [8]: 4200 nM; kon [8]: 152000 M⁻¹ s⁻¹; koff [10]: 0.0169 s⁻¹; kon [10]: 178000 M⁻¹ s⁻¹
mouse prothrombin (coagulation factor II) (from UniProt P19221 44-618) (natural protein)	356	0.06	168000	36000	0.281	7770	216	0.0676	314000	420	0.026	62400	560	1600	32000	1.41	1600	0.0304	19700	32000	koff [10]: 0.563 s⁻¹; kon [10]: 17800 M⁻¹ s⁻¹

From PMC9536601
